In patent US20130036520A1:

Columns and labels:
[1] = target: Cry1Ab receptor sites located in BBMV's (brush border membrane vesicles) from Ostrinia nubilalis larval midgut (Ostrinia nubilalis); test: homologous radioligand competition, unlabeled Cry1Ab against 0.5 nM 125I Cry1Ab on O. nubilalis BBMVs
[2] = target: Cry1Ab receptor sites located in BBMV's (brush border membrane vesicles) from Ostrinia nubilalis larval midgut (Ostrinia nubilalis); test: heterologous radioligand competition, unlabeled DIG-3 against 0.5 nM 125I Cry1Ab on O. nubilalis BBMVs

Which IC50 [1] does the source give for “Cry1Ab toxin, trypsin activated, non-radioactive (unlabeled homologous competitor) (from UniProt P0A370 29-607)” here?
Its IC50 is 500 pM.

For “DIG-3 toxin, trypsin activated (unlabeled heterologous competitor)”, which percent displacement of 125I Cry1Ab binding at 300 nM DIG-3 [2] is on record?
The percent displacement of 125I Cry1Ab binding at 300 nM DIG-3 was 25%.
